How the values were obtained:
HsRAD51 wild type [1] = molecular target: T1, HsRAD51 wild type (Homo sapiens, UniProt Q06609 1-339); assay: SPR; ADP (2.5 mM); SPR (Biacore 3000): 20 mM HEPES pH 7.5, 10% glycerol, 1 mM DTT, 1 mM MgCl2, 0.005% P-20, 2.5 mM indicated nucleotide, 150 mM KCl when indicated (text: salt similar to strand exchange), 25 C, 100 nM-1.6 uM protein; conditions: protein: recombinant; chain copies: 10; label: 5' biotin; single strand
HsRAD51 wild type [2] = molecular target: T1, HsRAD51 wild type; assay: SPR; ATP (2.5 mM); SPR (Biacore 3000): 20 mM HEPES pH 7.5, 10% glycerol, 1 mM DTT, 1 mM MgCl2, 0.005% P-20, 2.5 mM indicated nucleotide, 150 mM KCl when indicated (text: salt similar to strand exchange), 25 C, 100 nM-1.6 uM protein; conditions: protein: recombinant
HsRAD51 wild type [3] = molecular target: T1, HsRAD51 wild type; assay: SPR; no nucleotide; SPR (Biacore 3000): 20 mM HEPES pH 7.5, 10% glycerol, 1 mM DTT, 1 mM MgCl2, 0.005% P-20, 2.5 mM indicated nucleotide, 150 mM KCl when indicated (text: salt similar to strand exchange), 25 C, 100 nM-1.6 uM protein; conditions: protein: recombinant
HsRAD51(H294V) [4] = molecular target: T2, HsRAD51(H294V) (Homo sapiens, UniProt Q06609 1-339, H294V); assay: as above; conditions: protein: recombinant; chain copies: 10; label: 5' biotin; single strand
T2 sequence (Q06609 whole entry H294V): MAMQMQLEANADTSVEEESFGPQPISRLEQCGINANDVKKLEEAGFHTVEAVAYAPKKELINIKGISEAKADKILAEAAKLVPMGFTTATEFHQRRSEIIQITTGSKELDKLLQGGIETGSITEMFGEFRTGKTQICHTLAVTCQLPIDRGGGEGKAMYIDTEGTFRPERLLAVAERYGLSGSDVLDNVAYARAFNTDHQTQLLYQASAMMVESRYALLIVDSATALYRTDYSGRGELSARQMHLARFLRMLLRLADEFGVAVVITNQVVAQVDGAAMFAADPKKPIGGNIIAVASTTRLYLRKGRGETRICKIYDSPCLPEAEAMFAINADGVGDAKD

HsRAD51(F129V) [5] = molecular target: T3, HsRAD51(F129V) (Homo sapiens, UniProt Q06609 1-339, F129V); assay: SPR; ADP (2.5 mM); rapid dissociation; SPR (Biacore 3000): 20 mM HEPES pH 7.5, 10% glycerol, 1 mM DTT, 1 mM MgCl2, 0.005% P-20, 2.5 mM indicated nucleotide, 150 mM KCl when indicated (text: salt similar to strand exchange), 25 C, 100 nM-1.6 uM protein; conditions: protein: recombinant; chain copies: 10; label: 5' biotin; single strand
T3 sequence (Q06609 whole entry F129V): as the sequence (Q06609 whole entry H294V) above, with F129V, V294H counted along it

HsRAD51(H294V) [6] = molecular target: T2, HsRAD51(H294V); assay: as above; conditions: protein: recombinant; chain copies: 10; label: 5' biotin; single strand
HsRAD51(F129V) [7] = molecular target: T3, HsRAD51(F129V); assay: SPR; ADP (2.5 mM); SPR (Biacore 3000): 20 mM HEPES pH 7.5, 10% glycerol, 1 mM DTT, 1 mM MgCl2, 0.005% P-20, 2.5 mM indicated nucleotide, 150 mM KCl when indicated (text: salt similar to strand exchange), 25 C, 100 nM-1.6 uM protein; conditions: protein: recombinant; chain copies: 16; label: 5' biotin on strand 1; blunt
[8] = chain copies: 10, label: 5' biotin, single strand
[9] = chain copies: 16, label: 5' biotin on strand 1, blunt

T1 sequence (Q06609 whole entry): as the sequence (Q06609 whole entry H294V) above, with V294H counted along it

| Binder | Kd (HsRAD51 wild type [1]) [nM] | Kd (HsRAD51 wild type [2]; [8]) [nM] | Kd (HsRAD51 wild type [3]; [8]) [nM] | Kd (HsRAD51(H294V) [4]) [nM] | Kd (HsRAD51(F129V) [5]) [nM] | Kd (HsRAD51(H294V) [6]) [nM] | Kd (HsRAD51(F129V) [7]) [nM] | Kd (HsRAD51 wild type [2]; [9]) [nM] | Kd (HsRAD51 wild type [3]; [9]) [nM] |
| --- | --- | --- | --- | --- | --- | --- | --- | --- | --- |
| TTTTTTTTTTTTTTTTTTTTTTTTTTTTTTTTTTTTTTTTTTTTTTTTTT (ssDNA) [dT50] | 20 | 90 | 15 | 28 | 54 | 43 | – | – | – |
| 50 bp dsDNA (dsDNA) DNA 1: TCGAGAGGGTAAACCACAATTATTGATATAAAATAGTTTTGGGTAGGCGA DNA 2: TCGCCTACCCAAAACTATTTTATATCAATAATTGTGGTTTACCCTCTCGA | – | – | – | – | – | – | 446 | 262 | 264 |
